What was measured:
[1] = test system: circulating gluten-specific CD4+ T cells in whole blood of HLA-DQ2+ CeD patients; assay: Whole blood IL-2 cytokine release assay, HLA-DQ2+ CeD participants; type: cell-based, human; conditions: 24 hours; for IL-2 response (in words): HLA-DQ2+ donors, whole blood; for mean IL-2 titer: HLA-DQ2+ participants, 10 μM
Excerpt: FIGS. 10A-10B are graphs depicting the evaluation of the ability of various molarities of three gliadin polypeptides (Cv6, Av6, and 4K), two peptide mixes containing either the four individual building blocks BB1, BB2a, BB3a and BB4a (BB1-4a) or two Nexvax2 peptides (Nex01/02), and six individual building blocks or peptides (BB1, BB2a, BB3a, BB4a, Nex01, and Nex02) to restimulate gluten-specific T cell collected from HLA-DQ2+ CeD patients using a whole blood IL-2 release assay. The whole blood cytokine release assay was performed in six HLA-DQ2+ participants with biopsy-confirmed celiac disease. Whole blood was stimulated with the three gliadin polypeptide constructs Cv6, Av6, and 4K at 10, 2.5, and 0.5 μM final molarities, as indicated. Alternatively, whole blood was stimulated with a mix of peptides containing either the four building blocks BB1, BB2a, BB3a, and BB4a (BB1-4a) or Nex01 and Nex 02 (Nex01/02) at 10, 2.5, and 0.5 μM final molarities. Building blocks (BB1, BB2a, BB3a, and BB4a), Nex01, and Nex02 were also tested as individual peptides, at a single concentration of 10 μM. After 24 hours of incubation, the concentration of IL-2 was quantified from plasma using an MSD IL-2 S-plex ELISA. Data are expressed in femtogram/mL of plasma (A), or as fold change from the negative control (PBS 1×) (B). Symbols represent individual participants (patient ID); bars represent median+interquartile range of individual values.
(§1) The overarching objective of this assay was to validate that the polypeptide constructs (Cv6, Av6, and 4K) can be recognized and processed by human APCs, and they can then promote the activation of gluten-specific effector/memory CD4^+ T cells in CeD patients. A Cytokine Release Assay (CRA) was used (previously described in the literature: Anderson et al., Clinical & Experimental Immunology, 2021 June; 204(3): 321-334; and in Hardy et al., Frontiers in Immunology, 2021, Vol. 12, Article 661662, the entire contents of each of which are incorporated by reference herein). This assay quantifies IL-2 produced by circulating gluten-specific CD4^+ T cells present in the blood of CeD patients upon in vitro stimulation with gluten-derived antigens. Due to the extremely high sensitivity of this CRA, no oral exposure to gluten was required prior to blood sampling.
(§2) Informed consent was obtained from all subjects prior to blood collection.
(§3) Unfractionated blood (225 μL per well of a 96-well plate) was then rapidly restimulated for 24 hours with each of three of the polypeptide constructs provided herein (SEQ ID NO:23 wherein X is C [Cv6, i.e., SEQ ID NO:49], SEQ ID NO:23 wherein X is A [Av6, i.e., SEQ ID NO:50], and SEQ ID NO:46 [4K]) and with each of four individual building blocks (SEQ ID NO:15 wherein Z is E [BB1], SEQ ID NO:16 wherein Z is E [BB2a], SEQ ID NO:20 wherein Z is E [BB3a], and SEQ ID NO:18 wherein Z is E [BB4a]). The concentrations of the polypeptide constructs ranged from 0.5 to 10 micromolar, and the concentration for each individual building block was 10 micromolar. […] These two peptides comprise an N-terminal pyroglutamate and a C-terminal amide. Nex01 and Nex02 were the two gliadin peptides used in the Nexvax2 immunotherapeutic vaccine that was intended to restore immune tolerance to gluten in HLA-DQ2.5+ CeD patients. A positive control consisted of blood cells stimulated with phytohemagglutinin (PHA) (10 μg/mL) which activates all T cells regardless of their antigen specificity (i.e., a polyclonal activator). Negative controls consisted of cells treated with buffer only (PBS 1×).
(§4) After incubation for 24 hours at 37° C. and 5% CO2, plasma was separated from whole blood by centrifugation. Plasma was collected from each well and replicates (n=6 replicates per test) pooled. All plasma samples were frozen at −80° C. until analysis. Single plasma aliquots (100 μL) were thawed and analyzed in duplicate using MSD IL-2 S-plex according to the manufacturer's instructions.

[2] = test system: circulating gluten-specific CD4+ T cells in whole blood of HLA-DQ8+ CeD patients; assay: Whole blood IL-2 cytokine release assay, HLA-DQ8+ CeD participants; type: cell-based, human; conditions: for IL-2 response (in words): HLA-DQ8+ donors, whole blood; for IL-2 response (in words) / mean IL-2 titer: 24 hours; for mean IL-2 titer fold higher than Nex01/02 peptide mix / mean IL-2 titer: HLA-DQ8+ participants, 10 μM
Excerpt: FIGS. 11A-11B are graphs depicting the evaluation of the ability of various molarities of three gliadin polypeptides (Cv6, Av6, and 4K), two peptide mixes containing either the four individual building blocks BB1, BB2a, BB3a and BB4a (BB1-4a) or two Nexvax2 peptides (Nex01/02), and six individual building blocks or peptides (BB1, BB2a, BB3a, BB4a, Nex01, and Nex02) to restimulate gluten-specific T cell collected from HLA-DQ8+ CeD patients using a whole blood IL-2 release assay. The whole blood cytokine release assay was performed in four HLA-DQ8+ participants with biopsy-confirmed celiac disease as described in FIG. 10. Data are expressed in femtogram/mL of plasma (A), or as fold change from the negative control (PBS 1×) (B). Symbols represent individual participants (patient ID); bars represent the median+interquartile range of individual values.
as §1, §2, §3, §4

[3] = type: physicochemical; conditions: for precipitate in solution: pure water, PBS 1×, artificial perspiration, room temperature and 32° C., 24 hours
Excerpt: Dimerization appeared to be faster in artificial perspiration and at higher concentration.

Molecule | IL-2 response (in words) [1] | IL-2 response (in words) [2] | precipitate in solution [3] | mean IL-2 titer [1] [fg/mL] | mean IL-2 titer fold higher than Nex01/02 peptide mix [2] [fold] | mean IL-2 titer [2] [fg/mL] | dimer formation in solution (HPLC and LC-MS) ([3]; faster in artificial perspiration and at higher concentration)
H-PQPEQPEQPFPEQPQ-NH2 [BB2a] | no or low response | potent IL-2 responses | – | – | – | – | –
H-PSGEGSFQPSQENPQ-NH2 [BB4a] | no or low response | potent IL-2 responses | – | – | – | – | –
QLQPFPQPELPYPQPELPYPQPELPYPQPQPGPRRKKPQPEQPEQPFPEQPQGARRKKPQQPFPQPEQPFPWQPQGPKKPSGEGSFQPSQENPQ (peptide) QLQPFPQPELPYPQPELPYPQPELPYPQPQPGPRRKKPQPEQPEQPFPEQPQGARRKKPQQPFPQPEQPFPWQPQGPKKPSGEGSFQPSQENPQ | – | – | no precipitate was observed | 6664 | 9 | 3695 | –
QLQPFPQPELPYPQPELPYPQPELPYPQPQPKKKKPQPEQPEQPFPEQPQKKKKPQQPFPQPEQPFPWQPQKKKKPSGEGSFQPSQENPQ (peptide) QLQPFPQPELPYPQPELPYPQPELPYPQPQPKKKKPQPEQPEQPFPEQPQKKKKPQQPFPQPEQPFPWQPQKKKKPSGEGSFQPSQENPQ | – | – | no precipitate was observed | 7199 | 15 | 6300 | –
QLQPFPQPELPYPQPELPYPQPELPYPQPQPGPRRKKPQPEQPEQPFPEQPQGCRRKKPQQPFPQPEQPFPWQPQGPKKPSGEGSFQPSQENPQ (peptide) QLQPFPQPELPYPQPELPYPQPELPYPQPQPGPRRKKPQPEQPEQPFPEQPQGCRRKKPQQPFPQPEQPFPWQPQGPKKPSGEGSFQPSQENPQ | – | – | – | 4858 | 11 | 4528 | forms some dimers in solution

Reference: US20260265316A1, “IMMUNOTHERAPEUTIC METHODS, COMPOUNDS, AND COMPOSITIONS FOR TREATING OR PREVENTING CELIAC DISEASE” (DBV Technologies, priority 2023, published 2026)
